For eight proteins, Km, Vmax and kcat results are on record in PMC5493697, “Crystal structure of Pelagibacterium halotolerans PE8: New insight into its substrate-binding pattern” (Scientific Reports, 2017).

As usually defined, the Km is the substrate concentration at which the rate is half of its maximum. Broadly, the Vmax is the top rate of the reaction or transport when substrate is in excess. As a reminder, the kcat is the number of substrate molecules converted per active site and unit of time at saturation.

Changes are numbered by the printed parent chain. Names may count otherwise.

First the molecules themselves.
B1: PE8 (Pelagibacterium halotolerans B2; S118A) (protein)
chain: MTEPVKLSGPMLPAVSGAAKSLVVLLHGYGSDGRDLIALGQFWRDSFPDTMFVAPNAPHVCGGNPFGYEWFPLDLERDRTLARLAGAETAHPVLDAFLADLWAQTGLGPADTILVGFAQGAMMALYTGLRLPEPLKAIIAFSGLIVAPEKLEAEIASKPPVLLIHGDLDDVVPVIGSETALPKLIDLGIDARLHISQGSGHTIAQDGLDTATAFLREIL
notes: 6xHis fusion from pET28b in E. coli Rosetta (DE3), Ni-NTA and SEC; monomer; catalytic triad Ser118, Asp169, His201
B2: PE8 (Pelagibacterium halotolerans B2; V172A) (protein)
chain: B1 chain with A118S, V172A
notes: as for B1
B3: PE8 (Pelagibacterium halotolerans B2; R79A) (protein)
chain: B1 chain with R79A, A118S
notes: as for B1
B4: PE8 (Pelagibacterium halotolerans B2) (protein)
chain: B1 chain with A118S
notes: as for B1
B5: PE8 (Pelagibacterium halotolerans B2; M122A) (protein)
chain: B1 chain with A118S, M122A
notes: as for B1
B6: PE8 (Pelagibacterium halotolerans B2; V171A) (protein)
chain: B1 chain with A118S, V171A
notes: as for B1
B7: PE8 (Pelagibacterium halotolerans B2; R83A) (protein)
chain: B1 chain with R83A, A118S
notes: as for B1
B8: PE8 (Pelagibacterium halotolerans B2; L73A) (protein)
chain: B1 chain with L73A, A118S
notes: as for B1

Substrate in the data set: CC(=O)Oc1ccc([N+](=O)[O-])cc1
Put plainly: purified protein. It is filed as biochemical, Pelagibacterium halotolerans. As to conditions: 100 mM Tris-HCl pH 7.5, 30 °C, 0.05-4 mM substrate in acetonitrile.
With B1, the Km came to 540 ± 46 µM, the Vmax came to 12 µM/min/mg and the catalytic constant (kcat) was found to be 5.1 ± 0.14 s⁻¹.

For the protein B2, the Km amounted to 500 ± 35 µM, the Vmax was 82 µM/min/mg and the kcat was 35 ± 0.63 s⁻¹.

Regarding B3, the Km turned out to be 600 ± 62 µM, the maximum rate (Vmax) was 132 µM/min/mg and the kcat turned out to be 55 ± 1.7 s⁻¹.

B4: the Km was 660 ± 49 µM, the Vmax stood at 71 µM/min/mg and the kcat is 30 ± 0.68 s⁻¹.

In the case of B5, the Km amounted to 75 ± 6.9 µM, the Vmax was 96 µM/min/mg and the kcat came to 40 ± 0.68 s⁻¹.

Regarding B6, the Km came to 890 ± 70 µM, the Vmax turned out to be 36 µM/min/mg and the kcat came to 19 ± 0.42 s⁻¹.

Consider B7, for which the Km came to 600 ± 23 µM, the Vmax is 97 µM/min/mg and the kcat came to 41 ± 0.42 s⁻¹.

Turning to B8, the Km is 530 ± 26 µM, the Vmax worked out at 55 µM/min/mg and the kcat was 23 ± 0.27 s⁻¹.
